Values joined by “and” are separate entries in the source; they are usually repeats but may differ in a detail not shown here. Identical values can stand only once. Like-named read-outs stand apart in the source and are kept apart here. Ends that are not written are not given here. * marks the point of attachment. Cam = NC(=O)C*

The target of assay [1] is T1, human complement component C5 (human, UniProt P01031 19-673; P01031 678-1676).
T1 construct: mature; Mature C5 is a disulphide-linked beta and alpha chain cut from one precursor; Terbium-labelled in the FRET assays, biotinylated in part of the phage ELISA; also called human C5; C5-Tb
As to the kind of experiment: SPR, cysteines reduced and capped with iodoacetamide; K57, cysteines reduced and capped with iodoacetamide. Background: Surface plasmon resonance follows binding to a sensor surface in real time, without labels.

For assay [2], the target named is T1, human complement component C5. As to the kind of experiment: phage ELISA, OD 630 nm, anti-M13 HRP; C5 coated directly and biotinylated C5 captured on streptavidin. (In an ELISA, binding on a coated surface is turned into a signal by an enzyme label.)
The target is the same in assay [3]. Description: SPR (Biacore), C5, mean of n=3.
For assay [4], the target named is T2, human complement component C3 (human, UniProt P01024 23-667; P01024 672-1663).
T2 construct: also called biotinylated C3
Description: SPR (Biacore), C3, mean of n=3.

Assay [5] addresses T1, human complement component C5. Description: SPR multi-cycle kinetics, human C5 immobilised, mean of n=3.
The target is the same in assay [6]. Description: cell-based or functional assay.
The target is the same in assay [7]. As to the kind of experiment: cell-based or functional assay. The source holds these as a separate data set.
For assay [8], the target named is T2, human complement component C3. Description: phage ELISA, OD 630 nm, anti-M13 HRP; C3 coated directly and biotinylated C3 captured on streptavidin.
Assay [9] addresses T1, human complement component C5. Description: cell-based or functional assay. This is another data set of the same source.
Assay [10] has the same target. As to the kind of experiment: cell-based or functional assay. This is another data set of the same source.
For assay [11] the target is unchanged. Description: SPR single-cycle kinetics, human C5, n=1.
Assay [12] has the same target. As to the kind of experiment: cell-based or functional assay. This is another data set of the same source.
For assay [13] the target is unchanged. Description: cell-based or functional assay. This is another data set of the same source.
In assay [14] the target is T2, human complement component C3. As to the kind of experiment: counter screen. In general terms: The purpose of a counterscreen is to sort out artefacts and off-target activity.
A further assay addresses T3, ovalbumin (UniProt P01012 2-386).
T3 sequence (looked up): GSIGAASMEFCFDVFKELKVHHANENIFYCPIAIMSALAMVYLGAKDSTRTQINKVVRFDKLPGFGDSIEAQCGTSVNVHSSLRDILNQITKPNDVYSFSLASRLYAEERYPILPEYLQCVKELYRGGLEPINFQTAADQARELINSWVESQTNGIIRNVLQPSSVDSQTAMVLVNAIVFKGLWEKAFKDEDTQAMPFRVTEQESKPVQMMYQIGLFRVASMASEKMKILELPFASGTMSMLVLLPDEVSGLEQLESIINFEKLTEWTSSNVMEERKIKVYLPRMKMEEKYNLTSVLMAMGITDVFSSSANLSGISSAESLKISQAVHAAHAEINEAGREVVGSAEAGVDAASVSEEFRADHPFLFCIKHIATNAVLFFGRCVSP
Description: counter screen.

Assay [15] addresses T1, human complement component C5.
The target in a further assay is T4, rabbit C5 (rabbit).
T4 construct: mature; also called rabbit C5 protein
As to the kind of experiment: SPR single-cycle kinetics, n=1.

The target in another assay is T5, mouse C5 (mouse, UniProt P06684 19-674; P06684 679-1680).
T5 construct: mature; also called mouse C5 protein
Description: SPR single-cycle kinetics, n=1.

The target in assay [16] is T1, human complement component C5. The source holds these as a separate data set.
The target is the same in assay [17]. As to the kind of experiment: SPR single-cycle kinetics.
For assay [18] the target is unchanged. Description: cell-based or functional assay. This is another data set of the same source.
The target is the same in assay [19]. Description: cell-based or functional assay. The source holds these as a separate data set.
For assay [20] the target is unchanged. As to the kind of experiment: SPR, cysteines reduced and capped with iodoacetamide; K92, cysteines reduced and capped with iodoacetamide.
Assay [21] shares this target. Description: cell-based or functional assay. This is another data set of the same source.
The target is the same in assay [22]. Description: cell-based or functional assay. The source holds these as a separate data set.
The target is the same in assay [23]. Description: SPR single-cycle kinetics (Biacore 8K), C5 amine-coupled to a CM5 chip.
Assay [24] shares this target. Description: cell-based or functional assay. The source holds these as a separate data set.

T1 sequence (P01031 19-673 limits assumed, chain 1 of 2): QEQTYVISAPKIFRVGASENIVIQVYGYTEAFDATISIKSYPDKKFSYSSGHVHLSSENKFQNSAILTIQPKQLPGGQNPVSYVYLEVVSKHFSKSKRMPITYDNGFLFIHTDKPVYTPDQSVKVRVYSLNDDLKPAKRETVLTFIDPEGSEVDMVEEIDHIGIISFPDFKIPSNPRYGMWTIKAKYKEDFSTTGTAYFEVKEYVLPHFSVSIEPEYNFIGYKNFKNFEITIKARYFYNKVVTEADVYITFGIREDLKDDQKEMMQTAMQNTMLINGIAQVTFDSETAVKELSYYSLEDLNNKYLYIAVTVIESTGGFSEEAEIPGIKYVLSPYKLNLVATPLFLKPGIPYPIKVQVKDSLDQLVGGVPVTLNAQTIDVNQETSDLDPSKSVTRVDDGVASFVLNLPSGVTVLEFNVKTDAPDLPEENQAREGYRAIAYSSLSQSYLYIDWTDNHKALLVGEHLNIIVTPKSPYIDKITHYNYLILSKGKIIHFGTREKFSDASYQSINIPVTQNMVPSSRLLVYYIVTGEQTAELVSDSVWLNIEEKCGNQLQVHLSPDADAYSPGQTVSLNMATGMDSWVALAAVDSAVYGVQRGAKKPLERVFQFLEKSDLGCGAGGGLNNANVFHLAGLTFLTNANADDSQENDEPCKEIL
T1 sequence (P01031 678-1676 limits assumed, chain 2 of 2): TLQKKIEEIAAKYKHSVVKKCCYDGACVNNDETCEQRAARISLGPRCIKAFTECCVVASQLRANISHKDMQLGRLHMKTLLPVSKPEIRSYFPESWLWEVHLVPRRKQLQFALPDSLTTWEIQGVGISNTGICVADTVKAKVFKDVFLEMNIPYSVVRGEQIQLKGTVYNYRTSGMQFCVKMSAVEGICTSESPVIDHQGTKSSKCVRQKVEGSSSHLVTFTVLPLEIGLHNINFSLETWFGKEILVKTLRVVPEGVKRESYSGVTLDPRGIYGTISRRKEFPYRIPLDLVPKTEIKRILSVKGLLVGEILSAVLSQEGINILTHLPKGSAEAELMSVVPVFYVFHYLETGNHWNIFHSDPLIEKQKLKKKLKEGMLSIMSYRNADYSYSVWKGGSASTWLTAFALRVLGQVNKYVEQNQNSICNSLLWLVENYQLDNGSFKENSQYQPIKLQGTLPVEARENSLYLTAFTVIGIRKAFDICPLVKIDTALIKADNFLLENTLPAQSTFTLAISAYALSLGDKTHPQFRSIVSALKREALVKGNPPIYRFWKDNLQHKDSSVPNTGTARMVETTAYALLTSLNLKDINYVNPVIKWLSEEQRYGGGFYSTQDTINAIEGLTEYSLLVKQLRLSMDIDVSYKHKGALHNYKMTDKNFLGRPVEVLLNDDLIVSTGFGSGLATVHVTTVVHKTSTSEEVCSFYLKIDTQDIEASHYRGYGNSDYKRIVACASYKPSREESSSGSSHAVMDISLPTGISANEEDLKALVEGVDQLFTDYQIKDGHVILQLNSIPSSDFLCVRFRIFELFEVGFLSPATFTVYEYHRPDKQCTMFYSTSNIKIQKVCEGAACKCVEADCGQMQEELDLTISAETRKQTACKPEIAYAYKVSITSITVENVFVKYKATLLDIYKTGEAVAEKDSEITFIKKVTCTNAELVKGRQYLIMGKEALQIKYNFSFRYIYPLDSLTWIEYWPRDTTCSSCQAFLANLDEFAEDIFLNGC
T2 sequence (P01024 23-667 limits assumed, chain 1 of 2): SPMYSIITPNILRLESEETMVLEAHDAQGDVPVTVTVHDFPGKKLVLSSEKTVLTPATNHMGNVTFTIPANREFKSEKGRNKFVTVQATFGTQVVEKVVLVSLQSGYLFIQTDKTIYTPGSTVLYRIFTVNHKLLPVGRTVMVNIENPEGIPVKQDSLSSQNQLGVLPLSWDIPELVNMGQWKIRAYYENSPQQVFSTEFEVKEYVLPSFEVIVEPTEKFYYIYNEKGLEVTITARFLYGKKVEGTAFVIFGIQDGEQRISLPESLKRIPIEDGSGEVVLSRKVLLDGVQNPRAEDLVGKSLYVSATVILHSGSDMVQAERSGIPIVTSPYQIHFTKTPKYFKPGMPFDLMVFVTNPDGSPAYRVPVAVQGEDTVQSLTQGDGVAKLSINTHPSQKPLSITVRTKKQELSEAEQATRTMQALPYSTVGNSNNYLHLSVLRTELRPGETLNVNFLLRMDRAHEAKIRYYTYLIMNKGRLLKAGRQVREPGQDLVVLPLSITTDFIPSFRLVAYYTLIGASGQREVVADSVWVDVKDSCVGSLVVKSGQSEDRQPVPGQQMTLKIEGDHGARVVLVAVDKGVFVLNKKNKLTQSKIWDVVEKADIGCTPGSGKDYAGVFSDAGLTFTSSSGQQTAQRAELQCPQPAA
T2 sequence (P01024 672-1663 limits assumed, chain 2 of 2): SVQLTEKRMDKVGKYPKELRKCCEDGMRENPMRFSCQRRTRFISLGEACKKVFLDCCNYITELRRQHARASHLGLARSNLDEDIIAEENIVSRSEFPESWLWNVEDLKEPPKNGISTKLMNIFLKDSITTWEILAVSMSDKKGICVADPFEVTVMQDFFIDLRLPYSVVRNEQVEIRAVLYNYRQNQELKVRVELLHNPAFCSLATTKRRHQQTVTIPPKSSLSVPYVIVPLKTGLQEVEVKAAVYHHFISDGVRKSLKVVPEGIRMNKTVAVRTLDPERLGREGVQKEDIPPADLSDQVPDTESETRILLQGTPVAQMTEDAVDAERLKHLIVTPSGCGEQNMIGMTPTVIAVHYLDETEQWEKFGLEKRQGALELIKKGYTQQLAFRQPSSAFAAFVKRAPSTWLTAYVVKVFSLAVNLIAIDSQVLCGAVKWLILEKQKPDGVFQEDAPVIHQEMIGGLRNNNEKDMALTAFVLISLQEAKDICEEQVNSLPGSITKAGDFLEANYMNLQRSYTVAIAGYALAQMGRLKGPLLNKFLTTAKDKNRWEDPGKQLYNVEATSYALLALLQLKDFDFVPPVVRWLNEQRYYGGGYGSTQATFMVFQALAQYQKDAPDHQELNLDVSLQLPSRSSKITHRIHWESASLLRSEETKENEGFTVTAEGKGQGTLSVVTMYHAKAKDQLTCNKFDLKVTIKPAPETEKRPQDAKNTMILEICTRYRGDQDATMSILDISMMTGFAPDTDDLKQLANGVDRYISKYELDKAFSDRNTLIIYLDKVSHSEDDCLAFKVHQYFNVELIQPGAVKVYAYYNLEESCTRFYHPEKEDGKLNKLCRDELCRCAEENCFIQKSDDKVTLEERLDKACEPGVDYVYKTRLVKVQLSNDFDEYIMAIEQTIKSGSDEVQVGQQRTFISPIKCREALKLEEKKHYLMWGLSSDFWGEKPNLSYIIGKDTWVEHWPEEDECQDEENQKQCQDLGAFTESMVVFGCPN
T5 sequence (P06684 19-674 limits assumed, chain 1 of 2): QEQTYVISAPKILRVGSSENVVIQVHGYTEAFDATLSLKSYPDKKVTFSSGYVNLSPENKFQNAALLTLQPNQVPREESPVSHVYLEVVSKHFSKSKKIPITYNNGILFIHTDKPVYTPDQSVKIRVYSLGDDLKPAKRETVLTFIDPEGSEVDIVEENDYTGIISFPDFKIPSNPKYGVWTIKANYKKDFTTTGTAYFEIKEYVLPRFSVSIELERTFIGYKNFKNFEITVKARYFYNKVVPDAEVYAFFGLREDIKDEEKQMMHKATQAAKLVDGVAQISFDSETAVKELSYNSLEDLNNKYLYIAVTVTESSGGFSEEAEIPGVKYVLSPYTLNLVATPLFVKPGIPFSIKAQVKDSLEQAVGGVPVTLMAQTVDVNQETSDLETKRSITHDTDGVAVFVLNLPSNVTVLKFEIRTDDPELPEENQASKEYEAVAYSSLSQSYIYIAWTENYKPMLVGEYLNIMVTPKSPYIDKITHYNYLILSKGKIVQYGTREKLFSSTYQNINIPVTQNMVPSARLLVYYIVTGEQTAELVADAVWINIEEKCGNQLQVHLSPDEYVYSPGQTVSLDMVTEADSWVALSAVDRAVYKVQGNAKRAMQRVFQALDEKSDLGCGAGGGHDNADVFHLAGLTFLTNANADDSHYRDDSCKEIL
T5 sequence (P06684 679-1680 limits assumed, chain 2 of 2): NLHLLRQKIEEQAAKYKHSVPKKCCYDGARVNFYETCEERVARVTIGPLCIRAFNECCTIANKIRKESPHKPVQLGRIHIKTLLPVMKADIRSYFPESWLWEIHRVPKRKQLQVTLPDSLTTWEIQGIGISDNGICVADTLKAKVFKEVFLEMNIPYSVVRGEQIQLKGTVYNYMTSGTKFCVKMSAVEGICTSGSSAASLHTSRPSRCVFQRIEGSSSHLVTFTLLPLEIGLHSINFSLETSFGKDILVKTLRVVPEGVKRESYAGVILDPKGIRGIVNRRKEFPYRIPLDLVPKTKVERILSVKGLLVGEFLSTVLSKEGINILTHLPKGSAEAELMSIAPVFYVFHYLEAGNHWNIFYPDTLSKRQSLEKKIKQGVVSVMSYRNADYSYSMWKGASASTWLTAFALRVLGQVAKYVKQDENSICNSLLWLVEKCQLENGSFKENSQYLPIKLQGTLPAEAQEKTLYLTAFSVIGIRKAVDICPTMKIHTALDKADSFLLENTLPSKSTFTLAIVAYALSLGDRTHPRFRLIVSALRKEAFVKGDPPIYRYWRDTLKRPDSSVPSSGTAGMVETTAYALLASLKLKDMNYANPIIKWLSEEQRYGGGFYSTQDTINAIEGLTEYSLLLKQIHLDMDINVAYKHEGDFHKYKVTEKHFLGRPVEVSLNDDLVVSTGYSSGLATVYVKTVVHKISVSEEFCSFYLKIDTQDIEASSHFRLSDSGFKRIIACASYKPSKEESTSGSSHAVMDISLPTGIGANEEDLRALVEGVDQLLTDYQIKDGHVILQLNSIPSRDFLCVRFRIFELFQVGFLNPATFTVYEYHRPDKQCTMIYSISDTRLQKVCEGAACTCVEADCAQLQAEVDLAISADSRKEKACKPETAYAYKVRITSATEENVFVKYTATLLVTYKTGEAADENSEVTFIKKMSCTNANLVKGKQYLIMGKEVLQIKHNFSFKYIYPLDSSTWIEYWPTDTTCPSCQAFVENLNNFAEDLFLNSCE

B1: K57, reduced and cysteines capped with iodoacetamide (peptide)
peptide: GC(Cam)PPGYKSGVDC(Cam)SPGSEC(Cam)KWGC(Cam)YAVDGRRYGGYGADSGVGS
notes: also called K57 (loss of disulphide bonds)
In turn, B1 came in with a Kd in assay [1] of 76 nM.

B2: hC3nb1 VHH displayed on M13 phage (VHH)
VHH: QVQLVETGGGLVQAGGSLRLSCAASGSIFSLNAMGWFRQAPGKEREFVATINRSGGRTYYADSVKGRFTISRDNGKNMVYLQMHSLKPEDTAIYYCAAGTGWSPQTDNEYNYWGQGTQVTVSS
notes: not shown: poly-histidine, c-myc tag, M13 pIII
B2: the binding result in [2] was “no binding”.

B3: hC3nb1-K57 C-term with C-terminal single-chain Fc tag (bispecific antibody, V domains shown, not shown: a dimerising Fc or GST)
VH: QVQLVETGGGLVQAGGSLRLSCAASGSIFSLNAMGWFRQAPGKEREFVATINRSGGRTYYADSVKGRFTISRDNGKNMVYLQMHSLKPEDTAIYYCAAGTGWSPQTDNEYNYWGQGTQVTVSS
notes: also called hC3Nb1 C-Term
Turning to B3, the results for the Kd in assay [3] and in assay [4] were 0.271 nM and 0.302 nM, respectively.

As to TCPEGWSECGVAIYGYECGRWGCGHFLNSGPNISPYVST (also called chemical K92) [K92chemFE knob domain peptide], in assay [5], the Kd came to 0.411 nM, the koff was determined as 0.000101 s⁻¹ and the kon was 283000 M⁻¹ s⁻¹. Besides, the “alternative pathway haemolysis assay; IC50 (read off the curve)” value in assay [6] is roughly 200 nM. Also, in assay [7], the “alternative pathway complement ELISA (C5b deposition); IC50 (read off the curve)” value is roughly 70 nM.

B4: hC3nb1-K149 (K149 ultralong CDR-H3 in framework 3 of hC3nb1) displayed on M13 phage (bispecific antibody)
VHH: QVQLVETGGGLVQAGGSLRLSCAASGSIFSLNAMGWFRQAPGKEREFVATINRSGGRTYYADSVKGRFTISRDNGTSVLQSTKPQKSCPDGFSYRSWDDFCCPMVGRCLAPRNTYTTEFTIEAKNMVYLQMHSLKPEDTAIYYCAAGTGWSPQTDNEYNYWGQGTQVTVSS
notes: also called hC3nb1-K149 CDR-H3; not shown: poly-histidine, c-myc tag, M13 pIII
As for B4, the binding result in assay [8] and in [2] was “no binding” each time.

B5: hC3nb1-K57 loop 2 delta proline with C-terminal single-chain Fc tag (bispecific antibody, V domains shown, not shown: a dimerising Fc or GST)
VH: WFRQASGGGSGCPPGYKSGVDCSPGSECKWGCYAVDGRRYGGYGADSGVSGGGSKEREFVATINRSGGRTYYADSVKGRFTISRDNGKNMVYLQMHSLKPEDTAIYYCAAGTGWSPQTDNEYNYWGQGTQVTVSS
notes: also called hC3Nb1Loop2ΔP
For B5, the Kd in assay [3] turned out to be 0.864 nM. Further, the “classical pathway C5b neoepitope ELISA; IC50 (read off the curve)” value in [9] was roughly 20 nM.

B6: K8 knob domain peptide, chemically synthesised, free energy method (peptide)
peptide: VCPDGFNWGYGCAAGSSRFCTRHDWCCYDERADSHTYGFCTGNRV
modifications: disulfide (positions not given here); not fully specified
notes: Disulphides formed in glutathione redox buffer; also called K8chemFE; K8chem
Take B6: in [10], the “Alternative pathway C5b neoepitope ELISA, average Emax” value worked out at 91.5% and the “Alternative pathway C5b neoepitope ELISA, geomean IC50” value was 46.1 nM. In assay [5], this molecule displayed a Kd of 5.46 nM, a dissociation rate constant (koff) of 0.000385 s⁻¹ and a kon of 70500 M⁻¹ s⁻¹. Besides, in assay [11], the Kd is 12.1 nM, the koff is 0.000397 s⁻¹ and the kon was determined as 32900 M⁻¹ s⁻¹. For the same molecule, in assay [12], the “Classical pathway C5b deposition ELISA, average Emax” value is 47.3% and the “Classical pathway C5b deposition ELISA, geomean IC50” value stood at 9.8 nM. Besides, the “alternative pathway complement ELISA (C5b deposition); IC50 (read off the curve)” value in assay [7] is roughly 80 nM. Also, the “classical pathway complement ELISA (C5b deposition); IC50 (read off the curve)” value in assay [13] is roughly 30 nM.

B7: K92 knob domain peptide cleaved from the 645 Fab (peptide)
peptide: GSGSVTCPEGWSECGVAIYGYECGRWGCGHFLNSGPNISPYVTTGSENLYFQ
notes: Recombinant, cut out by TEV protease
In the case of B7, in [14], the binding result was “no binding”. Moreover, the binding result with ovalbumin is “no binding”. Besides, in assay [15], the Kd is less than 0.85 nM, the koff is 0.000113 s⁻¹ and the kon is 124000 M⁻¹ s⁻¹. Also, in the assay with rabbit C5, binding was characterised by a dissociation constant (Kd) of 76.6 nM, the koff came out at 0.00466 s⁻¹ and the kon was determined as 60800 M⁻¹ s⁻¹. In the assay with mouse C5, the Kd came out at 63.1 nM, the koff worked out at 0.00487 s⁻¹ and the kon worked out at 77200 M⁻¹ s⁻¹. In [16], the IC50 was 7.6 nM and 7.4 nM and 7.3 nM; the affinity corresponds to a Ki of 3.7 nM. In assay [17], this molecule yielded a Kd of less than 40 nM. In addition, in assay [18], the “Inhibition of alternative pathway mediated C5a release, average Emax” value stood at 43.3% and the “Inhibition of alternative pathway mediated C5a release, geomean IC50” value stood at 43.3 nM. In addition, in assay [19], the “Inhibition of alternative pathway mediated bacterial lysis, average Emax” value is 91% and the “Inhibition of alternative pathway mediated bacterial lysis, geomean IC50” value came to 2460 nM.

B8: K92, reduced and cysteines capped with iodoacetamide (peptide)
peptide: TC(Cam)PEGWSEC(Cam)GVAIYGYEC(Cam)GRWGC(Cam)GHFLNSGPNISPYVST
notes: also called K92 (loss of disulphide bonds)
Consider B8, for which, in assay [20], the Kd was 2000 nM.

B9: K8 knob domain peptide cleaved from the 645 Fab (peptide)
peptide: GSVCPDGFNWGYGCAAGSSRFCTRHDWCCYDERADSHTYGFCTGNRVENLYFQ
notes: as for B7
As for B9, the binding result in assay [14] is “no binding”. In the assay with ovalbumin, the binding result is “no binding”. For the same molecule, the “Inhibition of classical pathway mediated bacterial lysis, geomean IC50” value in assay [21] is 16900 nM. In [15], this molecule showed a Kd of 17.3 nM, a koff of 0.000357 s⁻¹ and a kon of 26100 M⁻¹ s⁻¹. Further, in the assay with rabbit C5, the dissociation constant Kd was 9.12 nM, the koff amounted to 0.000296 s⁻¹ and the kon was determined as 32400 M⁻¹ s⁻¹. Further, in the assay with mouse C5, the affinity, expressed as Kd, was 4.69 nM; the koff stood at 0.00019 s⁻¹; the kon is 40400 M⁻¹ s⁻¹. Moreover, in [16], the IC50 is 20.7 nM and 31.2 nM and 26.1 nM and 25.6 nM; the affinity, expressed as Ki, was 12.8 nM. In [17], this molecule had a Kd of less than 40 nM. Further, in [18], the “Inhibition of alternative pathway mediated C5a release, average Emax” value is 71.8% and the “Inhibition of alternative pathway mediated C5a release, geomean IC50” value was determined as 150 nM. Besides, the “Inhibition of classical pathway mediated C5a release, geomean IC50” value in [22] was 9.9 nM. Moreover, in assay [19], the “Inhibition of alternative pathway mediated bacterial lysis, average Emax” value was 98.1% and the “Inhibition of alternative pathway mediated bacterial lysis, geomean IC50” value is 25800 nM.

As for GSKSCREGYIDGGGCCLPGSCRGCACSYYDWLKCPRDCRGTSEEENLYFQ (Recombinant, cut out by TEV protease) [K60 knob domain peptide cleaved from the 645 Fab], the binding result (in assay [14]; in the assay with ovalbumin; in assay [23]) was “no binding” throughout.

B10: hC3nb1-K57 loop 1 with C-terminal single-chain Fc tag (bispecific antibody, not shown: a dimerising Fc or GST)
VHH: QVQLVETGGGLVQASGGGSGCPPGYKSGVDCSPGSECKWGCYAVDGRRYGGYGADSGVSGGGSGSLRLSCAASGSIFSLNAMGWFRQAPGKEREFVATINRSGGRTYYADSVKGRFTISRDNGKNMVYLQMHSLKPEDTAIYYCAAGTGWSPQTDNEYNYWGQGTQVTVSS
For B10, in [24], the “alternative pathway C5b neoepitope ELISA; IC50 (read off the curve)” value is roughly 200 nM. Further, the “classical pathway C5b neoepitope ELISA; IC50 (read off the curve)” value in assay [9] was roughly 50 nM.

As usually defined, the Kd is the equilibrium constant for the complex coming apart. One may read the koff as the rate constant with which the complex falls apart. A higher koff goes with a short-lived complex. For orientation: kon means the rate constant with which the complex forms. A higher kon goes with faster complex formation. One may read the IC50 as the concentration at which inhibition is half-maximal. A lower IC50 goes with inhibition by little substance. The term Ki denotes a dissociation constant, usually derived from enzyme kinetics or from competition with a known ligand.
